The DeepSol protein solubility set

Assay: soluble on expression in E. coli; label from the status in PepcDB or PDB records

Q: With “MIAAQLLAYYFTELKDDQVKKIDKYLYAMRLSDETLIDIMTRFRKEMKNGLSRDFNPTATVKMLPTFVRSIPDGSEKGDFIALDLGGSSFRILRVQVNHEKNQNVHMESEVYDTPENIVHGSGSQLFDHVAECLGDFMEKRKIKDKKLPVGFTFSFPCQQSKIDEAILITWTKRFKASGVEGADVVKLLNKAIKKRGDYDANIVAVVNDTVGTMMTCGYDDQHCEVGLIIGTGTNACYMEELRHIDLVEGDEGRMCINTEWGAFGDDGSLEDIRTEFDRAIDAYSLNPGKQLFEKMVSGMYLGELVRLILVKMAKEGLLFEGRITPELLTRGKFNTSDVSAIEKNKEGLHNAKEILTRLGVEPSDDDCVSVQHVCTIVSFRSANLVAATLGAILNRLRDNKGTPRLRTTVGVDGSLYKTHPQYSRRFHKTLRRLVPDSDVRFLLSESGSGKGAAMVTAVAYRLAEQHRQIEETLAHFHLTKDMLLEVKKRMRAEMELGLRKQTHNNAVVKMLPSFVRRTPDGTENGDFLALDLGGTNFRVLLVKIRSGKKRTVEMHNKIYAIPIEIMQGTGEELFDHIVSCISDFLDYMGIKGPRMPLGFTFSFPCQQTSLDAGILITWTKGFKATDCVGHDVVTLLRDAIKRREEFDLDVVAVVNDTVGTMMTCAYEEPTCEVGLIVGTGSNACYMEEMKNVEMVEGDQGQMCINMEWGAFGDNGCLDDIRTHYDRLVDEYSLNAGKQRYEKMISGMYLGEIVRNILIDFTKKGFLFRGQISETLKTRGIFETKFLSQIESDRLALLQVRAILQQLGLNSTCDDSILVKTVCGVVSRRAAQLCGAGMAAVVDKIRENRGLDRLNVTVGVDGTLYKLHPHFSRIMHQTVKELSPKCNVSFLLSEDGSGKGAALITAVGVRLRTEASS” as the sequence, how does the “soluble on expression in E. coli” value read?
A: The value was “soluble”.

Q: For “MGSDKIHHHHHHMRILLTGIPSYLQRTVSGVSGAEVRHRPYFDEVRTKKELIEQVKKIANTGNYLIGEGAAHALRGHDVTYLPFWHLVNSRNSDEAYESLNEEFDICVFASANLLRPGYSADLEAEVFEKLKMPVVIMGIGIQRREGLKENLPAGTLKFLEVLRNKESFFLTRGYFTAEFLREQGMKFVKPTGCPSLFFAPAEMKRSLAALANPELASSQKIAFGGYLGSVADTIVDAHALLKPDSVASYVIQDEVVAYNLSLPVDDDLPVYDRASGRITGQTAYKHSEKWQRKHELLVFFDTNQWRSWVSARDLCFGRRFHGCIIGMQAGVPSLMIAVDDRMREMLEFIGFPYMEAAVWNREQDRKAYLASFLSKIDSQAVIDRYSACETNFRNALAHVGL”, which “soluble on expression in E. coli” value is on record?
A: Its value is “not soluble”.

Q: With “MGSDKIHHHHHHMSETENNELTAGKQSKEPRSNQKLKLLYLAKILLNNTDANHDITLDEILNKLHAYDVTAARKSLYDDIAQLNDFGIKTQKTQYGRTVHYKVIGRAFELAELKLLVDSVAAAKFITEEKSNELIKKLESLTSRQEAATLQRQVYVAGRVKTMNSDIMKNVDAIHNAIANNSSLSFQYCRWNTKKELEVKHDGARYHVSPWGLLWNDGNYYLIGYDHDTQVKDIRHYRVDKMKNILIENKVREGREKLKKLDIASYGKSKFGMYNGEEIKAEILCKNSAIGVLIDRFGTDVTILKKDEAHSRVFVKVADNKLFIHWIMAMGDNFKIIGPENLVKEVHDELNRLAKQYELAD” as the sequence, how does the “soluble on expression in E. coli” value read?
A: The value was “not soluble”.

Q: With “MSFRFLILLLLASTLLVNSFPIGKDNESDESEVEVDTTTEAENIEVESQEASLDEQLNEVSEDPTREKRGLYSSERTEEEVEISHGMHHREKRHSEHLPHPDPPSHTAKRSTEHHRVKRSEGHPHEKKATHSPEGHIVAKDDHHGHEKRSSDSHHGHQKRSVDEHHGHQKKNAEDHHEHQKRSEHVEHQAEMHEHQKRSTQEVSGHPEHHLVKRSGGEGGHRHHRSTDQGLDEDEPEDEIQTDENDEVTEEPGSRKRRNTDTPMPSFPSDHDSEHSNSVAIRVKRVSRAGSSHKVRTLNKNRGNSKAGETTQNDSLTPNSGGVFNS” as the sequence, how does the “soluble on expression in E. coli” value read?
A: Its value is “not soluble”.

Q: With “VDLNALADLPLTYPEVGATATGRLPAGYNHLDVSTQIGTGRQRFEQAADAVMHWGMQRNAGLRVRASSETAVVSAVVLVGIAFLRAPCRVVYVIDEPDVRGFGYGTLPGHPVSGEERFAVRCDPMTSVVFAEVLSFSRPATWASKAAGPLGAVTQRFIAQRYLRAV” as the sequence, how does the “soluble on expression in E. coli” value read?
A: Its value is “not soluble”.

Q: Which “soluble on expression in E. coli” value does the source give for “MGSDKIHHHHHHMVLPSMNKSVEAISNNHLQQPNKFPLINGLADVRDYYVANCLLFKLNKGSLRIENEFGEFIERSAPCLFLLEKDQTITLSMSEIEGHIDFSSLEVSYDLMQKFYKVFYSTRNYNDRELSLKTKPKYFFHADLLPGMSDTFDSILHGVACPRVCSNVSIDDHDYSYFSLMYLISAFVRKPGGFDFLERAIKITTKEKVYNIIISDLTRKWSQAEVAGKLFMSVSSLKRKLAAEEVSFSKIYLDARMNQAIKLLRMGAGNISQVATMCGYDTPSYFIAIFKRHFKITPLSFMRTMNH” here?
A: Its value is “not soluble”.

Q: Which “soluble on expression in E. coli” value does the source give for “MGSDKIHHHHHHMSDLPERLHDIIRRRNMVLGPGYQFSETIPVEFVSSFGAHLIDSDGNDYLDAFNNVQGVGHAHRHVADAVARQIAAINTDTRYPQEALVAYAERLLATFPAELSKLSLPCTGSEANDLAVRVARYHTGGEGIIVTRWAFHGRTREVASFSPMLGAGSPLGPNVRLIAAPDPRFCGPQQSLENYMRDQVRSAIVDLERHGYRLAALVADSAFTSDGIFTHPVGFLQAMVDEVHAAGGLHIADEVQSGFAQLGDSMWGFSRHGVVPDIVTMGKAIGNGFPISGVVFRPEVSDEFGQKVSYFNTLGGRSLSIAAASAVLDVFEQENVRERVAVNGAALQSGLETLARESPYVAEIRGSGLYLGVEIVKDRETLEPDPIRCESIIKDLRDRRVLISRTGSSGNVLKVRPPVAFTAADVSRFLETFAIVAKQRL” here?
A: Its value is “not soluble”.

Q: For “AKKIGIEQSLSDVEAALKEKGYDVVMMKSPADAQGCDCCVVTGLDNNVQGIADTVTQAPVITASGMTAEEICSEVESRIQ”, which “soluble on expression in E. coli” value is on record?
A: The value was “not soluble”.

Q: For “EHNKRVNLANAGRVSSAEGIKKLRASGVKFVWVDQSLSAQQCVFKPVEEPIDIEVGDKTLSVSSKVQRAYRSREVQHKRAKKLIAEAKGLAQKLLNQTFEGKVIQVDEIESWADDMIESVFIDSDALQCVSALRQKDSYLLEHSVNVACLLVSFGKHLGLDKDTLKQLAIGGIIHDVGKIKVDDKILHKPARLTPEEFEHMKLHQVFAGEIIVEVKGLSDVSRDVCLMHHEKLDGTGYPRGLSGDEIPIHGRMSCIVDIYDALTADRCYKKGMSSAEAFKILLSLTPFHLDPDL”, which “soluble on expression in E. coli” value is on record?
A: Its value is “not soluble”.

Q: For “MGSDKIHHHHHHMPFDPKIRGPLDVRPLLQLMSAGSWQVELAHERDCHLVIWITRGQGRVLLDGQCRGFGPHTALCIPARTLFSLELGRQCIGQVLRIGEDIPCGLPETPMQIRINDMQEQGRINALFDAALREQQVADDHTAKAITSYADLVGIHLQRLWVRAPENRKPTAARRLCRAYCARLAQDAEGAFNMAGHASELGVTPTHLTRVCKQETGKTAAALLTERQLHAARSLLASTRLPMRDIAQSLGFGSAAYFTRFITQHTGSTPSDLRKKAHGAQLASGRNP”, which “soluble on expression in E. coli” value is on record?
A: Its value is “not soluble”.

Q: With “MKIAVLGASGWIGGTILNEALSRGHEVVALVRDPSKLGETAAEVRSVDLAKPLTADTFAGVDVLIASVGGRADLNHSLVAKTVNNLLALLPLAKVPRLLWVGGAGSLEVAPGVTLVSSPDFPPAYKDEALAQGEALKAFRAANTAVNWTFVSPAAEIYPGESEGLYRLGGDSFFTDAKGRSRISVTDYAKAMLDEAEKGAHPNQRISVAYLEHHHHHH” as the sequence, how does the “soluble on expression in E. coli” value read?
A: Its value is “soluble”.

Q: Which “soluble on expression in E. coli” value does the source give for “MGSDKIHHHHHHMNFLVRNLVENLEEGDRVILDVTHSFRSIPLMASVVALYLKEAKDVNVSVVYGKYNKETKVTECEDLTPLTKATSWIYAVRLFKEYGYAKELADLIKKRNEEIYRRSQSSKKPKLLGSMSQKLQDLSSSIRLGSIVAIRKNLTNFFNFIDRNKARIREETEVFVPEIAALLDGIEKRYRVIHVKSENFELSEKELESEKELLDFYLQTGDLGMALRLAREYLINVYLMSGGEKSDFLDRNVRESVSISTFGYDTILQARNHVAHFGFNKLQLPSLKKIEDHLKVLVQTPPEQLLESARKTQRNRKRALLTPLGTTKGALYTVLKKISPDLLLVITSKQGKAILSEILEKAEFKGEFRVILLEDPFMGVSEIDRVVSEIKEHLSDVDEVIVNLTGGTTFLTYVIERAKNQIRYGRKVKTILAVDKRTYEEQKQNPFVVGEILELD” here?
A: The value was “not soluble”.

Q: Which “soluble on expression in E. coli” value does the source give for “MSLETQDHTLYVLLGPTGVGKTDLSLDIAERLGSPIISADSRQIFRELPIGTAAPTPEQRARVPHLFVGTHSVRDYYSAGMYEVEVLEALKELFRKYRGVLLTGGSMMYIDAVCRGIDDIPDPFPEVREELYARYAAEGLDGILAQLRLLDPDYYAKVDRRNYKRVIHGLEICLSTGRPFSSFHRHEAKERPFRIVKIGLYREREELCKRIDARVLEMMEQGLEEEARAVYPLRHLNALNTVGYKEMFEYFDGSIDRAEAVRRIQRNSRVYARKQMTWFRRDSTIRWFHPEADKGTVLTLVTEGHHHHHH” here?
A: Its value is “soluble”.

Q: For “MIELHQKRLSAPKTYKIPRKVSKWVVKPSPGPHNKEAIPLLVLVRDFLELADTGREARRIISAGEILVDGVVRKDYKFPVGLFDVVTIPKLEKSYRILFDEKGRYIPKEVEDADLKLYKITNKTLVRGGKVQLNLFDGTNILGSNDYKTKDSILLRIPEKEVVDHLKFEEGALVMITGGTHAGEIGRIKSYKIVRSSAPNLVTVEGEERDITTIEDYVFVVGKKDSDKPVIDLGVLEHHHHHH”, which “soluble on expression in E. coli” value is on record?
A: Its value is “soluble”.

Q: For “MREIVSIHIGQAGVQIGNACWELYCLEHGITPDGLMPDDTSYGVEDQSYNTFFSETPSGKHVPRAIFVDLEPTVIDEVRTGTYAKLFHPEQLISGKEDAANNYARGHYTIGKELIDVVMDRVRRLTERCQSLQGFLIFHSFGGGTGSGFTSLVMERLSIDYGKKAKLEFSIYPAPQISTSMVEPYNSLLTTHTTLEHSDCSFIMDNEAIYEITKVNLGVRSPTYTHLNRLLAQVVSSITASLRFDGALNVDLTEFQTNLVPYPRIHFPLVTYAPIISAEKAYHEQLSVSEITNVCFEPGSQMVKCDPRNGKYMACCLLYRGDVVPKEINSAISTIKTKRAIQFVDWCPTGFKVGINYQPPTVVPGGDMAKLQRAVCMLSNTTAIQEAWARLDHKFDLMYAKRAFVHWYVGEGMEEGEFSEAREDMAALEKDYEEVGVDSFDPNDEEY”, which “soluble on expression in E. coli” value is on record?
A: Its value is “not soluble”.

Q: Which “soluble on expression in E. coli” value does the source give for “MGSDKIHHHHHHRGDKPVVWNHQDRRFEVIQQKKQRQRLDSYRRIVIDTTAPVTIRQGDTRQVTLHNFSSANNRLRARVSQGTLTVTGGSTTMNYVLGFGSDGGGINFSSNGDKRGVVITVPKTQRLDSIISKREGGELSLKKMTVKQISVKSTDDVSFNDVRVTKTLAVDTTAGDISGKQVKADRVDLTAEEGDVSLTQSHFKAVNNRVISGDGDVRLATTQLGGGHVVASDGDIQLHDNRLMGTLKATATDGDISARIAPAAGAKVTTTDSDDEIHVVGHSRSSGYWLRRAASAQYRLSTDDGDITVTQ” here?
A: Its value is “not soluble”.
